According to patent publication US20140314747A1, “PREDICTING RESPONSE TO EGFR INHIBITORS” (Genentech, Inc., priority 2013, published 2014):

System: mesenchyme free lung explants (lung epithelium in Matrigel)
Test: mesenchyme-free lung explant culture, growth and branching
Type: cell-based, mouse
Conditions: both LKB1 wt/wt and LKB1 MG/MG, presence and absence of NMPP1
Method: Pancreas and individual lobes of the lungs were dissected from embryos harvested from timed pregnancy setups. Embryonic explants were cultured on 12 mm Transwell® with 0.4 μm polyester membrane insert (Corning, Tewsbury, Mass.) at the air-liquid interface in DME media with 10% fetal calf serum, glutamine and penicillin-streptomycin. For longer-term cultures (>3 days), media was changed daily.
For mesenchyme-free cultures, lungs were dissected and incubated in Collagenase/Dispase (1 mg/ml for each) for 10-15 minutes at room temperature. Epithelial tissue was removed by mechanical dissection, transferred to the Transwell® plates, and covered with 5-10 μl of 1:1 Matrigel:DME. After Matrigel was solidified, 400 μl media (DME/10% FCS/glutamine/pen-strep+200 ng/ml FGF7 (Life Technologies, Carlsbad, Calif.), FGF1 (Life Technologies), or EGF (Life Technologies)) was added to top and bottom wells. Erlotinib (Tarceva®, 1 μM hydrochloride salt; OSI Pharmaceuticals) or DMSO was added as indicated.
Embryonic explants were fixed in 4% paraformaldehyde, permeabilized in PBS with 2% BSA, 0.1% saponin or 0.1% Triton-X100. After washing, tissues were stained with anti-E-cadherin (Santa Cruz). […]
Homozygous germline mutations in LKB1 in mice are early embryonic lethal. […] During this time, the response of these tissues to growth factors was assessed.

B1: FGF-7: fibroblast growth factor FGF-7 (Life Technologies) (protein, UniProt P21781 32-194, looked up)
Fibroblast growth factor 7: CNDMTPEQMATNVNCSSPERHTRSYDYMEGGDIRVRRLFCRTQWYLRIDKRGKVKGTQEMKNNYNIMEIRTVAVGIVAIKGVESEFYLAMNKEGKLYAKKECNEDCNFKELILENHYNTYASAKWTHNGGEMFVALNQKGIPVRGKKTKKEQKTAHFLPMAIT
growth of mesenchyme free lung cultures: robust growth
